# Source: article PMC8990011, “Bcl-xL acts as an inhibitor of IP3R channels, thereby antagonizing Ca^2+-driven apoptosis” (Cell Death and Differentiation, 2021)
# B1: GST-mIP3R1-Fragment 3 (domain or fragment)
# chain: SIHGVGELMTQVVLRGGGFLPMTPMAAAPEGNVKQAEPEKEDIMVMDTKLKIIEILQFILNVRLDYRISCLLCIFKREFDESNSQSSETSSGNSSQEGPSNVPGALDFEHIEEQAEGIFGGSEENTPLDLDDHGGRTFLRVLLHLTMHDYPPLVSGALQLLFRHFSQRQEVLQAFKQVQLLVTSQDVDNYKQIKQDLDQLRSIVEKSELWVYKGQGPDEPMDGASGENEHKKTEEGTSKPLKHESTSSYNYRVVKEILIRLSKLCVQESASVRKSRKQQQRLLRNMGAHAVVLELLQIPYEKAEDTKMQEIMRLAHEFLQNFCAGNQQNQALLHKHINLFLNPGILEAVTMQHIFMNNFQLCSEINERVVQHFVHCIETHGRNVQYIKFLQTIVKAEGKFIKKCQDMVMAELVNSGEDVLVFYNDRASFQTLIQMMRSERDRMDENSPLMYHIHLVELLAVCTEGKNVYTEIKCNSLLPLDDIVRVVTHEDCIPEVKIAYINFLNHCYVDTEVEMKEIYTSNHMWKLFENFLVDICRACNNTSDRKHADSILEKYVTEIVMSIVTTFFSSPFSDQSTTLQTRQPVFVQLLQGVFRVYHCNWLMPSQKASVESCIRVLSDVAKSRAIAIPVDLDSQVNNLFLKSHNIVQKTALNWRLSAR
# B2: GST-mIP3R1-LBD (domain or fragment)
# chain: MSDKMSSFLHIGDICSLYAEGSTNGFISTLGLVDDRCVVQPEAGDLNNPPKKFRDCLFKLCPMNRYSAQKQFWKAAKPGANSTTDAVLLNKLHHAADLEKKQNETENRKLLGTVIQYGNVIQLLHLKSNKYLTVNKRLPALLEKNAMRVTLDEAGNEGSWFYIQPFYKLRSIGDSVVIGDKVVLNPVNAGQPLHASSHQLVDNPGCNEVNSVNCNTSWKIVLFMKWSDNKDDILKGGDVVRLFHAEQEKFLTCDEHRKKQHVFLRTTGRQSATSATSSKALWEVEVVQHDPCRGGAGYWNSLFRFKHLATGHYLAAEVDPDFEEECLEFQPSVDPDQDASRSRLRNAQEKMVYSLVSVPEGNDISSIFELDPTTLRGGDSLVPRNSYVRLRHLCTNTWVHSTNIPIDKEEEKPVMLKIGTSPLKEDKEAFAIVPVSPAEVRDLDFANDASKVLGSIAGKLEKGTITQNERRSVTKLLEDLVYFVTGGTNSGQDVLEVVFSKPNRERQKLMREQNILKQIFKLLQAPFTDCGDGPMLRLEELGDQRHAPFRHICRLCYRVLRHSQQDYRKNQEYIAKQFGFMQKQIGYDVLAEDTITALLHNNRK
# Key:
# 6xHis-Bcl-xL = target: T1, 6xHis-Bcl-xL (human, UniProt Q07817-1 1-233, RED-tris-NTA dye on the His tag (Monolith His-Tag Labeling Kit) in MST); experiment: MST; 6xHis-Bcl-xL proteins labelled with RED-tris-NTA kept constant at 50 nM; GST proteins titrated down from 15 µM to 5 nM; Monolith NT, 5% excitation power, medium MST power; triplicates; conditions: both partners purified
# T1 construct: full-length Bcl-xL cloned in pET45b in the 6xHis-encoding reading frame; also called wild-type 6xHis-Bcl-xL; full-length 6xHis-Bcl-xL; source: E. coli BL21, purified (NiNTA)
# 6xHis-Bcl-xL^K87D = target: T2, 6xHis-Bcl-xL^K87D (human, UniProt Q07817-1 1-233, K87D, RED-tris-NTA dye on the His tag (Monolith His-Tag Labeling Kit) in MST); experiment: as above; conditions: both partners purified
# T2 construct: full-length Bcl-xL with K87D, made from pET45b-Bcl-xL by site-directed mutagenesis; also called full-length Bcl-xL^K87D; purified Bcl-xL^K87D; source: E. coli BL21, purified (NiNTA)
# T2 sequence (Q07817 whole entry K87D): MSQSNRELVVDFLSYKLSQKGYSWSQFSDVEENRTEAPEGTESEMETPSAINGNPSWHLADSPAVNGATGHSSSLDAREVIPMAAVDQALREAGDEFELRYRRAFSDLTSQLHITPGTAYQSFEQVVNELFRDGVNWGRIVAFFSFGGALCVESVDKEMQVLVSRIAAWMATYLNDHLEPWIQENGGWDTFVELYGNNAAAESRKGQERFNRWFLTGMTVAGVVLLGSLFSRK
# T1 sequence (Q07817 whole entry): as the sequence (Q07817 whole entry K87D) above, with D87K counted along it
Binder,Kd (6xHis-Bcl-xL) [nM],Kd (6xHis-Bcl-xL^K87D) [nM]
B1,~495,~990
B2,~701,~1170
